Results published in patent US20130251728A1 (Regeneron, published 2013).
Changes are numbered by the printed parent chain.

B1: H4H1765N (antibody, V domains shown)
VH: EEQLVESGGDLVQPGGSLRLSCAASGFTLSSYEMNWVRQAPGKGLEWVSYISRGGSLIHYTDSVKGRFTISRDNAKNSLYLQMNSLRAEDTAVYYCVRDPAARYHYYYHGMDVWGQGTTVTVSS
VL: DIVMTQSPLSLPVTPGEPASISCRSSQSLLHNNGYNYLDWYLQKPGQSPQLLIYLGSSRASGVPDRFSGSGSGTDFILKISRVEAEDVGVYYCMQALQTPWTFGRGTKVEIK
notes: Anti-GCGR antibody from hybridoma; the controls are called isotype-matched hIgG4
B2: H4H1345N (antibody, V domains shown)
VH: QVQLVQSGADVKKPGASVKVSCKVSGHILTDLSMHWVRQPPGKGLEWMAGFDPEEGKIIYAQKFQGRVTMTEDTSTDTAYMELSSLRSGDTAVYYCATSDILTGYYRDYYGLDVWGQGTTLTVSS
VL: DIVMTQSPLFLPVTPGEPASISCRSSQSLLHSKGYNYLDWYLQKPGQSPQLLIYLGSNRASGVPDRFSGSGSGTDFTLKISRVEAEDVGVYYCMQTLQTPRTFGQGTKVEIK
notes: as for B1
B3: H4H1617N (antibody, V domains shown)
VH: B2 VH with P40A, A49G, K57E
VL: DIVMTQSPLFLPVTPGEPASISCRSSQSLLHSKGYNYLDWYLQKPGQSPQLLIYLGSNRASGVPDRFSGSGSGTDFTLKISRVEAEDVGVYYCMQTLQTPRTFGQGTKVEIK
notes: as for B1
B4: H4H1327P (antibody, V domains shown)
VH: EVQLVESGGGLVQPGGSLRLSCAASGFTFSNYLMNWVRQAPGKGLEWLANIQEDGIEKYYVDSVKGRFTISRDNAKNSLYLQMNSLRAEDTAVYYCAREPSHYDILTGYDYYYGMDVWGQGTTVTVS
VL: DIQMTQSPSSLSASVGDRVTITCRASQGIRNDLGWYQQKPGKAPKRLIYAASSLQSGVPSRFSGSGSGTEFILTVSSLQPEDFATYYCLQYNSNPFTFGPGTKVDIK
notes: also called anti-GCGR (hIgG4) antibody designated H4H1327P
B5: H4H1328P (antibody, V domains shown)
VH: EVQLVESGGALVQPGGSLRLSCTASGFTFSNYDMHWVRQTTGKGLEWISAIDTAGDTYYPGSVKGRFTVSRENAKNSFYLQMNSLRAGDTAVYYCAREGKYYDILTGDYHYYGMDVWGQGTTVTVS
VL: B4 VL with A51T, I72T, V75I, Y91H, N94Y, F96L, P100G, V104L, D105E
notes: Fully human anti-GCGR antibody; the controls are called isotype-matched hIgG4

Legend:
hGCGR-mmh [1] = target: T1, hGCGR-mmh (human); assay: SPR Biacore T100, 25C, mAb captured, antigen flowed
T1 construct: also called REGN547; monovalent hGCGR
T1 chain: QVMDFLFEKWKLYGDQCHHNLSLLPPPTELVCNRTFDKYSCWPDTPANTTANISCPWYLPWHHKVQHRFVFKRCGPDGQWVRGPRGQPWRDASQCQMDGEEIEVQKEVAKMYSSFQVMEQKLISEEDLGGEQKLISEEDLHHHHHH
Protocol: (§1) Measurements were conducted on a T100 Biacore instrument. Antibodies were captured onto the Biacore sensor chip surface via a covalently-linked anti-human kappa antibody capture surface, and the soluble GCGR proteins were applied to the surface either in a monovalent (hGCGR expressed with a myc-myc-hexa-histidine C-terminal tag) or bivalent (hGCGR and MfGCGR expressed with an N-terminal Fc fusion) format.
(§2) Binding dissociation equilibrium constants and dissociative half-lives were calculated from the kinetic rate constants as: KD=kd/kₐ; t_{1/2}=(In2/kd).

hGCGR-hFc [2] = target: T2, hGCGR-hFc (human); assay: as above
T2 construct: also called REGN316
Protocol: as §1, §2

mfGCGR-hFc [3] = target: T3, mfGCGR-hFc (cynomolgus monkey (Macaca fascicularis)); assay: as above
T3 construct: also called mfGCGR-N-terminal hFc
T3 sequence (chain, as listed by the source limits assumed): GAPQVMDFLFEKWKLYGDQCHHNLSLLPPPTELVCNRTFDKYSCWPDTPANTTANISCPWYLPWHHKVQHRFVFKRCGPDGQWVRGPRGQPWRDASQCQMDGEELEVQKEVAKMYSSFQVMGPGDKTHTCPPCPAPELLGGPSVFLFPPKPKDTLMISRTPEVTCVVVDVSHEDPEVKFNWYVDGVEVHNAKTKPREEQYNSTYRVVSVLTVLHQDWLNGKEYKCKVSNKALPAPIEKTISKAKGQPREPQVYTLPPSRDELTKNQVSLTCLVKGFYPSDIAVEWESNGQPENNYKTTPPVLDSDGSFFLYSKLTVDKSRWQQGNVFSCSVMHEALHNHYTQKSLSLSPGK
Protocol: as §1, §2

hGCGR-mmh [4] = target: T1, hGCGR-mmh; assay: SPR Biacore T100, 37C, mAb captured, antigen flowed
Protocol: as §1, §2

hGCGR-hFc [5] = target: T2, hGCGR-hFc; assay: as above
Protocol: as §1, §2

mfGCGR-hFc [6] = target: T3, mfGCGR-hFc; assay: as above
Protocol: as §1, §2

[7] = target: T4, monkey (Macaca fascicularis) GCGR (full-length, on HEK293 reporter cells) (monkey (Macaca fascicularis), UniProt P47871 26-477 (human entry)); assay: cell-based or functional assay
T4 chain: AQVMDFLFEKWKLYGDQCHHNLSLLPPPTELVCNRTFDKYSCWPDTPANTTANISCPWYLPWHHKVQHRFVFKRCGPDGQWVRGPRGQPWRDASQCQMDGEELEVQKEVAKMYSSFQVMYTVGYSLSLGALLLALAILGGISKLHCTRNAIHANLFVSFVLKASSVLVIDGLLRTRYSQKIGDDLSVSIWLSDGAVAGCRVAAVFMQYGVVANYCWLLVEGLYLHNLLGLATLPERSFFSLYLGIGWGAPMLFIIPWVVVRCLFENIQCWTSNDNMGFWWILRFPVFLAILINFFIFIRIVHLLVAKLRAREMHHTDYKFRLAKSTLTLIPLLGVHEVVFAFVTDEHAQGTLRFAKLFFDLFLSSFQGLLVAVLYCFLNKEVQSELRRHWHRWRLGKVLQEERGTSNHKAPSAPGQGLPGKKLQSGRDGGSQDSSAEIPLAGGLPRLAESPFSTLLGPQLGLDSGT

[8] = target: human GCGR (full-length, on HEK293 reporter cells) (human, UniProt P47871 27-477); assay: cell-based or functional assay
[9] = target: rat GCGR (full-length, on transiently transfected HEK293 reporter cells) (rat, UniProt P30082 27-485); assay: cell-based or functional assay
Chain of rat GCGR (full-length, on transiently transfected HEK293 reporter cells) (P30082 27-485 limits assumed): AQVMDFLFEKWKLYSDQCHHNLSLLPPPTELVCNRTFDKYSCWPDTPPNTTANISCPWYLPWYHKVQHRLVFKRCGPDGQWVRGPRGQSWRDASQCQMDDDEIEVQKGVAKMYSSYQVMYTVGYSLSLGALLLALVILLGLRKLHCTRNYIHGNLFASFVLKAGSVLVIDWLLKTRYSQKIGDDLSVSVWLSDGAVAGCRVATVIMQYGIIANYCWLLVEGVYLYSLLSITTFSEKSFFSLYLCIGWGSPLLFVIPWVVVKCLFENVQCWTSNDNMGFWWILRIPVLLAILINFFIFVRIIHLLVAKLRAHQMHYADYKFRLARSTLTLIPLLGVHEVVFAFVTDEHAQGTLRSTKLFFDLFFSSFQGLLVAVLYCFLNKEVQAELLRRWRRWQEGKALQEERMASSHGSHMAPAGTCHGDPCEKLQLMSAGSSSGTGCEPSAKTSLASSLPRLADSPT

[10] = target: mouse GCGR (full-length, on HEK293 reporter cells) (mouse, UniProt Q61606 27-485); assay: cell-based or functional assay
Chain of mouse GCGR (full-length, on HEK293 reporter cells) (Q61606 27-485 limits assumed): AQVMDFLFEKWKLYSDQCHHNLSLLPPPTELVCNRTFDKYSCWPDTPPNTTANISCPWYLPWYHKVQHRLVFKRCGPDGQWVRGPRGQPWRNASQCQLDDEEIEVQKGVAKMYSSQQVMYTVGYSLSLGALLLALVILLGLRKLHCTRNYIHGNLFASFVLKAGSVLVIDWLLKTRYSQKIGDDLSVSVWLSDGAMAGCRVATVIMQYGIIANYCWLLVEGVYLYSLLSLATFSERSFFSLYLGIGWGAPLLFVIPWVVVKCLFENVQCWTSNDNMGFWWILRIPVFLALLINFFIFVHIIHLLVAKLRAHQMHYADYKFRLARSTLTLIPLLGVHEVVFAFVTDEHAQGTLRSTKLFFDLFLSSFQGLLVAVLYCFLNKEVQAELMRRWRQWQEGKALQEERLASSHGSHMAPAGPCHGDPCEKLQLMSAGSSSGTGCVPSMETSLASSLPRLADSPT

Binder	Kd (hGCGR-mmh [1])	T½ (hGCGR-mmh [1])	koff (hGCGR-mmh [1])	kon (hGCGR-mmh [1])	Kd (hGCGR-hFc [2])	T½ (hGCGR-hFc [2])	koff (hGCGR-hFc [2])	kon (hGCGR-hFc [2])	Kd (mfGCGR-hFc [3])	T½ (mfGCGR-hFc [3])	koff (mfGCGR-hFc [3])	kon (mfGCGR-hFc [3])	Kd (hGCGR-mmh [4])	T½ (hGCGR-mmh [4])	koff (hGCGR-mmh [4])	kon (hGCGR-mmh [4])	Kd (hGCGR-hFc [5])	T½ (hGCGR-hFc [5])	koff (hGCGR-hFc [5])	kon (hGCGR-hFc [5])	other results
B1	0.093 nM	6.32 h	3.05e-05 s⁻¹	326000 M⁻¹ s⁻¹	0.0122 nM	38.9 h	4.95e-06 s⁻¹	410000 M⁻¹ s⁻¹	≤ 0.00156 nM	192 h	≤ 1e-06 s⁻¹	643000 M⁻¹ s⁻¹	0.252 nM	1.73 h	0.000111 s⁻¹	441000 M⁻¹ s⁻¹	0.0537 nM	5.4 h	3.57e-05 s⁻¹	664000 M⁻¹ s⁻¹	Kd (mfGCGR-hFc [6]): 0.0164 nM; T½ (mfGCGR-hFc [6]): 13 h; koff (mfGCGR-hFc [6]): 1.48e-05 s⁻¹; kon (mfGCGR-hFc [6]): 904000 M⁻¹ s⁻¹; IC50, inhibition of 100 pM GCG-stimulated luciferase activity, mfGCGR reporter cells [7]: 75.2 nM; IC50, inhibition of 100 pM GCG-stimulated luciferase activity, hGCGR reporter cells [8]: 12.8 nM
B2	0.431 nM	0.567 h	0.000344 s⁻¹	798000 M⁻¹ s⁻¹	0.0724 nM	3.37 h	5.72e-05 s⁻¹	790000 M⁻¹ s⁻¹	0.0254 nM	7.95 h	2.42e-05 s⁻¹	953000 M⁻¹ s⁻¹	2.12 nM	0.1 h	0.00197 s⁻¹	928000 M⁻¹ s⁻¹	0.324 nM	0.617 h	0.000309 s⁻¹	952000 M⁻¹ s⁻¹	Kd (mfGCGR-hFc [6]): 0.101 nM; T½ (mfGCGR-hFc [6]): 1.52 h; koff (mfGCGR-hFc [6]): 0.000128 s⁻¹; kon (mfGCGR-hFc [6]): 1.27e+06 M⁻¹ s⁻¹; IC50, inhibition of 100 pM GCG-stimulated luciferase activity, mfGCGR reporter cells [7]: 3.86 nM; IC50, inhibition of 100 pM GCG-stimulated luciferase activity, hGCGR reporter cells [8]: 2.22 nM; IC50, inhibition of 100 pM GCG-stimulated luciferase activity, rat GCGR reporter cells [9]: 8.07 nM
B3	0.187 nM	0.967 h	0.000199 s⁻¹	1.07e+06 M⁻¹ s⁻¹	0.0389 nM	6.05 h	3.18e-05 s⁻¹	818000 M⁻¹ s⁻¹	0.011 nM	13.9 h	1.38e-05 s⁻¹	1.26e+06 M⁻¹ s⁻¹	0.943 nM	0.167 h	0.00113 s⁻¹	1.2e+06 M⁻¹ s⁻¹	0.181 nM	0.9 h	0.000214 s⁻¹	1.18e+06 M⁻¹ s⁻¹	Kd (mfGCGR-hFc [6]): 0.0586 nM; T½ (mfGCGR-hFc [6]): 2.22 h; koff (mfGCGR-hFc [6]): 8.72e-05 s⁻¹; kon (mfGCGR-hFc [6]): 1.49e+06 M⁻¹ s⁻¹; IC50, inhibition of 100 pM GCG-stimulated luciferase activity, mfGCGR reporter cells [7]: 4.24 nM; IC50, inhibition of 100 pM GCG-stimulated luciferase activity, hGCGR reporter cells [8]: 1.25 nM; IC50, inhibition of 100 pM GCG-stimulated luciferase activity, rat GCGR reporter cells [9]: 3.66 nM
B4	0.369 nM	0.55 h	0.000352 s⁻¹	952000 M⁻¹ s⁻¹	0.0338 nM	4.7 h	4.1e-05 s⁻¹	1.21e+06 M⁻¹ s⁻¹	0.00902 nM	13.4 h	1.44e-05 s⁻¹	1.6e+06 M⁻¹ s⁻¹	1.35 nM	0.1 h	0.002 s⁻¹	1.48e+06 M⁻¹ s⁻¹	0.157 nM	0.833 h	0.000232 s⁻¹	1.48e+06 M⁻¹ s⁻¹	Kd (mfGCGR-hFc [6]): 0.0357 nM; T½ (mfGCGR-hFc [6]): 2.42 h; koff (mfGCGR-hFc [6]): 7.94e-05 s⁻¹; kon (mfGCGR-hFc [6]): 2.22e+06 M⁻¹ s⁻¹; IC50, inhibition of 100 pM GCG-stimulated luciferase activity, mfGCGR reporter cells [7]: 2.56 nM; IC50, inhibition of 100 pM GCG-stimulated luciferase activity, hGCGR reporter cells [8]: 0.39 nM; IC50, inhibition of 100 pM GCG-stimulated luciferase activity, mGCGR reporter cells [10]: 1.04 nM; IC50, inhibition of 100 pM GCG-stimulated luciferase activity, rat GCGR reporter cells [9]: 0.88 nM
B5	2.06 nM	0.0833 h	0.00212 s⁻¹	1.03e+06 M⁻¹ s⁻¹	0.201 nM	0.85 h	0.000226 s⁻¹	1.13e+06 M⁻¹ s⁻¹	0.0529 nM	2.28 h	8.46e-05 s⁻¹	1.6e+06 M⁻¹ s⁻¹	6.67 nM	0.0167 h	0.0108 s⁻¹	1.61e+06 M⁻¹ s⁻¹	0.124 nM	1 h	0.000192 s⁻¹	1.55e+06 M⁻¹ s⁻¹	Kd (mfGCGR-hFc [6]): 0.0353 nM; T½ (mfGCGR-hFc [6]): 2.68 h; koff (mfGCGR-hFc [6]): 7.17e-05 s⁻¹; kon (mfGCGR-hFc [6]): 2.03e+06 M⁻¹ s⁻¹; IC50, inhibition of 100 pM GCG-stimulated luciferase activity, mfGCGR reporter cells [7]: 2.73 nM; IC50, inhibition of 100 pM GCG-stimulated luciferase activity, hGCGR reporter cells [8]: 0.24 nM; IC50, inhibition of 100 pM GCG-stimulated luciferase activity, mGCGR reporter cells [10]: 1.26 nM; IC50, inhibition of 100 pM GCG-stimulated luciferase activity, rat GCGR reporter cells [9]: 0.93 nM
